This note sets out measurements from publication PMC2171315 (The Journal of Cell Biology, 2005).

The experiment concerns the target GST-Nup2p (S. cerevisiae, UniProt P32499 1-720). As to the kind of experiment: pull-down.

Chain of GST-Nup2p (P32499 whole entry): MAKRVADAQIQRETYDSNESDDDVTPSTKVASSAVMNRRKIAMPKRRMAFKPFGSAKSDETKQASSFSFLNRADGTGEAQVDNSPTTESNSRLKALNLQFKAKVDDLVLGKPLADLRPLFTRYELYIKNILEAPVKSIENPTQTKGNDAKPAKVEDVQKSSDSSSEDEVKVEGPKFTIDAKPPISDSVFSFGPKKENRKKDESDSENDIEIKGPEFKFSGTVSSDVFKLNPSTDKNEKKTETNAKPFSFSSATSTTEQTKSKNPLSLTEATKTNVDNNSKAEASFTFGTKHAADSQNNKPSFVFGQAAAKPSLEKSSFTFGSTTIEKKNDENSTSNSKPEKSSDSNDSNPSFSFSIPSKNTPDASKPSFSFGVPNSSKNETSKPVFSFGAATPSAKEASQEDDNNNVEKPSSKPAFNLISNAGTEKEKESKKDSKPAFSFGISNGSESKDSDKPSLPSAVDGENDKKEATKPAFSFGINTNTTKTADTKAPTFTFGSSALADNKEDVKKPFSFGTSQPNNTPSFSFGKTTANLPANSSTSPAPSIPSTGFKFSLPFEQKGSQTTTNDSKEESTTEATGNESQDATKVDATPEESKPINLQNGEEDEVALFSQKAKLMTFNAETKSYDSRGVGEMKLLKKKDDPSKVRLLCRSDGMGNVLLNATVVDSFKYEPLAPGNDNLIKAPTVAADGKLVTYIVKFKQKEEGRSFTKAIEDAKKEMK

B1: Bacterially expressed and purified Prp20p (natural protein)
chain: MVKRTVATNGDASGAHRAKKMSKTHASHIINAQEDYKHMYLSVQPLDIFCWGTGSMCELGLGPLAKNKEVKRPRLNPFLPRDEAKIISFAVGGMHTLALDEESNVWSWGCNDVGALGRDTSNAKEQLKDMDADDSSDDEDGDLNELESTPAKIPRESFPPLAEGHKVVQLAATDNMSCALFSNGEVYAWGTFRCNEGILGFYQDKIKIQKTPWKVPTFSKYNIVQLAPGKDHILFLDEEGMVFAWGNGQQNQLGRKVMERFRLKTLDPRPFGLRHVKYIASGENHCFALTKDNKLVSWGLNQFGQCGVSEDVEDGALVTKPKRLALPDNVVIRSIAAGEHHSLILSQDGDLYSCGRLDMFEVGIPKDNLPEYTYKDVHGKARAVPLPTKLNNVPKFKSVAAGSHHSVAVAQNGIAYSWGFGETYAVGLGPFEDDTEVPTRIKNTATQDHNIILVGCGGQFSVSGGVKLSDEDAEKRADEMDD
Take B1: the binding result is “binds”.
